Article PMC6317279

Target: FLAG-tagged CRTC3 S391A (mouse) (UniProt Q91X84)
Chain of UniProt Q91X84 (Q91X84 whole entry S391A): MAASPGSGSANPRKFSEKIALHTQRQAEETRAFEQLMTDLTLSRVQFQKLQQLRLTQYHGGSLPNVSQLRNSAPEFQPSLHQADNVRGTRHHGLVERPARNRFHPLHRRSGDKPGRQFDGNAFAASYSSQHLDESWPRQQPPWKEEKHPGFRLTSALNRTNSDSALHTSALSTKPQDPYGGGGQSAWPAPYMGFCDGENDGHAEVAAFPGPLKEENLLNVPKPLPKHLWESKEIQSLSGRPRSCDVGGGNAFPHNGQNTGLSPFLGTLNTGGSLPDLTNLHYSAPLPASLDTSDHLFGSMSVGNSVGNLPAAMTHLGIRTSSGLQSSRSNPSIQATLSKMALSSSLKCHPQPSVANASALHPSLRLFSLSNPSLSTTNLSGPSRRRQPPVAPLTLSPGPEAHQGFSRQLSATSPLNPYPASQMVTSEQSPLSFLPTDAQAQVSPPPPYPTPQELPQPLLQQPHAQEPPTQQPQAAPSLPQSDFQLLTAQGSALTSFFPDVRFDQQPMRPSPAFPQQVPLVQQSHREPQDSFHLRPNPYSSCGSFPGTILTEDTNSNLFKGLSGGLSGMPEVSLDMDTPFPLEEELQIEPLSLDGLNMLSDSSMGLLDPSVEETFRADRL

B55 PP2A holoenzyme (protein phosphatase 2A: catalytic, scaffold and 55-kDa regulatory B subunits) (from UniProt P67775 1-309; P30153 1-589; P63151 1-447) (complex)
transient CRE luciferase-based (EVX-Luc) reporter assay, basal transcriptional activity of S391A mutant CRTC3 against WT CRTC3: 2 fold lower
